Where no end group is shown, it is not given here. 7‑COOH‑Br3Bt = not defined here

This experiment deals with catalytic subunit of human protein kinase CK2 (human) (UniProt P68400).
Chain of catalytic subunit of human protein kinase CK2 (human) (P68400 whole entry): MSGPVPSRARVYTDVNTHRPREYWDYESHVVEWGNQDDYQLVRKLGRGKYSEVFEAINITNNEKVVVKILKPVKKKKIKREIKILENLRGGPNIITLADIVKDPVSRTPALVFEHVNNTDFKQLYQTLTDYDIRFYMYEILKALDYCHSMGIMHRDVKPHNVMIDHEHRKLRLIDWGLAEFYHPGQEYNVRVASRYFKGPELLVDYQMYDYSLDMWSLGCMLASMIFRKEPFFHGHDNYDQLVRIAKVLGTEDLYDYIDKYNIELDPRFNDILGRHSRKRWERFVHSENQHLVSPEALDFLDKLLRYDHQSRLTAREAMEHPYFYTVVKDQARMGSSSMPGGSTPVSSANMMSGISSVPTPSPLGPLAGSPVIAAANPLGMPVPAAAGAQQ

K(7‑COOH‑Br3Bt)ESEEE-NH2 (reading uncertain) [bi-substrate inhibitor (KESEEE-NH2 conjugated with 7-COOH-Br3Bt)]: the IC50 of inhibition of hCK2α kinase activity (ADP-Glo assay; 10 μM substrate peptide …, 10 μM ATP, 30 °C) is 0.67 µM.

For the origin of these results see publication PMC6662822, “Rational drug-design approach supported with thermodynamic studies — a peptide leader for the efficient bi-substrate inhibitor of protein kinase CK2” (Scientific Reports, 2019).
